{
  "source": "the supplement of paper PMC10567573",
  "parents": {"B1": {"name": "PKD2L1 (parent)", "chain": "YSGGGYYLDLPGSRQGSAEALRAL"}, "B2": {"name": "KIAA1161 (parent)", "chain": "FMPAMQFSIPPWRYDAEVVAIAQK"}},
  "data": [
    {"variants_of": "B1", "test": "protein stability index of a GFP-peptide fusion (GPS, HEK-293T) (PSI 1-6); higher = more stable", "conditions": "c terminus: a fixed tail appended", "values": [
      {"variant": "L24A", "protein stability index": 1.85},
      {"variant": "L24N", "protein stability index": 2.1},
      {"variant": "L24E", "protein stability index": 1.49},
      {"variant": "L24M", "protein stability index": 1.63},
      {"variant": "L24K", "protein stability index": 2.91},
      {"variant": "L24F", "protein stability index": 1.99},
      {"variant": "L24I", "protein stability index": 1.63},
      {"variant": "L24Q", "protein stability index": 1.17},
      {"variant": "L24W", "protein stability index": 1.62},
      {"variant": "L24G", "protein stability index": 2.63},
      {"variant": "L24C", "protein stability index": 1.62},
      {"variant": "L24P", "protein stability index": 2.7},
      {"variant": "L24R", "protein stability index": 2.34},
      {"variant": "L24S", "protein stability index": 2.41},
      {"variant": "L24Y", "protein stability index": 2.12},
      {"variant": "L24H", "protein stability index": 2.65},
      {"variant": "L24T", "protein stability index": 1.61},
      {"variant": "L24V", "protein stability index": 2.33},
      {"variant": "L24D", "protein stability index": 1.6},
      {"variant": "A23Y", "protein stability index": 1.53}
    ]},
    {"variants_of": "B2", "test": "protein stability index of a GFP-peptide fusion (GPS, HEK-293T) (PSI 1-6); higher = more stable", "conditions": "c terminus: a fixed tail appended", "values": [
      {"variant": "F1W", "protein stability index": 1.95},
      {"variant": "F1K", "protein stability index": 2.55},
      {"variant": "F1Q", "protein stability index": 3.2},
      {"variant": "F1N", "protein stability index": 2.61},
      {"variant": "F1A", "protein stability index": 2.3},
      {"variant": "F1E", "protein stability index": 2.81},
      {"variant": "F1R", "protein stability index": 3.23},
      {"variant": "A4Q", "protein stability index": 1.97},
      {"variant": "A4R", "protein stability index": 2.66},
      {"variant": "A4G", "protein stability index": 2.34},
      {"variant": "A4D", "protein stability index": 3.44},
      {"variant": "K24M", "protein stability index": 1.33},
      {"variant": "K24E", "protein stability index": 1.82},
      {"variant": "K24T", "protein stability index": 1.63},
      {"variant": "K24P", "protein stability index": 2.01},
      {"variant": "K24Q", "protein stability index": 1.86},
      {"variant": "A16E", "protein stability index": 1.97},
      {"variant": "A16H", "protein stability index": 1.63},
      {"variant": "A16I", "protein stability index": 3.3},
      {"variant": "A16D", "protein stability index": 2.25},
      {"variant": "A16S", "protein stability index": 1.72},
      {"variant": "A16N", "protein stability index": 2.02},
      {"variant": "A16F", "protein stability index": 2.28},
      {"variant": "A16G", "protein stability index": 1.2},
      {"variant": "A16W", "protein stability index": 1.66},
      {"variant": "A16Y", "protein stability index": 2.19},
      {"variant": "A16Q", "protein stability index": 1.62},
      {"variant": "P11S", "protein stability index": 2.03},
      {"variant": "P11E", "protein stability index": 1.64},
      {"variant": "P11F", "protein stability index": 2.17},
      {"variant": "P11L", "protein stability index": 2.24},
      {"variant": "P11Y", "protein stability index": 2.28},
      {"variant": "P11K", "protein stability index": 1.65},
      {"variant": "P11N", "protein stability index": 2.11},
      {"variant": "P11A", "protein stability index": 1.61},
      {"variant": "P11T", "protein stability index": 1.69},
      {"variant": "E17C", "protein stability index": 1.68},
      {"variant": "E17K", "protein stability index": 2.66},
      {"variant": "E17Q", "protein stability index": 3.67},
      {"variant": "E17S", "protein stability index": 1.62},
      {"variant": "E17W", "protein stability index": 3.06},
      {"variant": "E17P", "protein stability index": 1.48},
      {"variant": "R13Q", "protein stability index": 2.53},
      {"variant": "R13S", "protein stability index": 1.63},
      {"variant": "R13V", "protein stability index": 1.16},
      {"variant": "R13W", "protein stability index": 1.58},
      {"variant": "R13P", "protein stability index": 2.17},
      {"variant": "R13Y", "protein stability index": 1.69},
      {"variant": "W12R", "protein stability index": 2.39},
      {"variant": "W12F", "protein stability index": 2.26},
      {"variant": "W12K", "protein stability index": 2.17},
      {"variant": "W12G", "protein stability index": 2.76},
      {"variant": "W12Q", "protein stability index": 2.3},
      {"variant": "W12P", "protein stability index": 2.74},
      {"variant": "F7Q", "protein stability index": 2.89},
      {"variant": "F7T", "protein stability index": 2.24},
      {"variant": "F7Y", "protein stability index": 1.7},
      {"variant": "F7C", "protein stability index": 2.61},
      {"variant": "F7A", "protein stability index": 1.97},
      {"variant": "F7W", "protein stability index": 1.68},
      {"variant": "F7H", "protein stability index": 2.01},
      {"variant": "S8D", "protein stability index": 1.54},
      {"variant": "S8V", "protein stability index": 2},
      {"variant": "S8A", "protein stability index": 1.69},
      {"variant": "P3A", "protein stability index": 2.35},
      {"variant": "P3I", "protein stability index": 2.58},
      {"variant": "P3L", "protein stability index": 2.22},
      {"variant": "I9E", "protein stability index": 2.37},
      {"variant": "I9K", "protein stability index": 1.84},
      {"variant": "I9D", "protein stability index": 2.57},
      {"variant": "I9M", "protein stability index": 2.04},
      {"variant": "I9R", "protein stability index": 1.6},
      {"variant": "I9H", "protein stability index": 2.35},
      {"variant": "I9F", "protein stability index": 2.48},
      {"variant": "I9P", "protein stability index": 1.93},
      {"variant": "I9G", "protein stability index": 1.95},
      {"variant": "I9W", "protein stability index": 3.43},
      {"variant": "Y14M", "protein stability index": 2.25},
      {"variant": "Y14C", "protein stability index": 1.67},
      {"variant": "Y14I", "protein stability index": 1.05},
      {"variant": "Y14D", "protein stability index": 2.2},
      {"variant": "Y14N", "protein stability index": 2.37},
      {"variant": "Y14P", "protein stability index": 1.79},
      {"variant": "Y14G", "protein stability index": 1.93},
      {"variant": "Y14S", "protein stability index": 2.13},
      {"variant": "Y14L", "protein stability index": 1.59},
      {"variant": "Y14T", "protein stability index": 2.82},
      {"variant": "A20T", "protein stability index": 1.92},
      {"variant": "A20G", "protein stability index": 1.98},
      {"variant": "A20H", "protein stability index": 1.97},
      {"variant": "A20E", "protein stability index": 2.42},
      {"variant": "A20S", "protein stability index": 1.59},
      {"variant": "A20D", "protein stability index": 3.07},
      {"variant": "A22L", "protein stability index": 2.45},
      {"variant": "A22D", "protein stability index": 1.96},
      {"variant": "A22Q", "protein stability index": 2.56},
      {"variant": "A22K", "protein stability index": 1.88},
      {"variant": "A22H", "protein stability index": 1.9},
      {"variant": "A22F", "protein stability index": 2.18},
      {"variant": "Q23H", "protein stability index": 1.66},
      {"variant": "Q23G", "protein stability index": 1.78},
      {"variant": "Q23N", "protein stability index": 1.85},
      {"variant": "Q23P", "protein stability index": 1.99},
      {"variant": "D15P", "protein stability index": 1.17},
      {"variant": "D15R", "protein stability index": 1.95},
      {"variant": "D15S", "protein stability index": 1.24},
      {"variant": "D15E", "protein stability index": 2.5},
      {"variant": "D15W", "protein stability index": 1.19},
      {"variant": "Q6R", "protein stability index": 1.82},
      {"variant": "Q6D", "protein stability index": 1.92},
      {"variant": "Q6T", "protein stability index": 1.55},
      {"variant": "Q6I", "protein stability index": 1.34},
      {"variant": "Q6F", "protein stability index": 1.4},
      {"variant": "Q6N", "protein stability index": 2.66},
      {"variant": "Q6H", "protein stability index": 1.86},
      {"variant": "Q6G", "protein stability index": 1.83},
      {"variant": "Q6S", "protein stability index": 1.83},
      {"variant": "P10I", "protein stability index": 2.86},
      {"variant": "P10E", "protein stability index": 2.5},
      {"variant": "P10R", "protein stability index": 1.28},
      {"variant": "P10G", "protein stability index": 1.33},
      {"variant": "P10H", "protein stability index": 1.77},
      {"variant": "V18Y", "protein stability index": 2.03},
      {"variant": "V18S", "protein stability index": 2.05},
      {"variant": "V18G", "protein stability index": 2.6},
      {"variant": "V18Q", "protein stability index": 2.81},
      {"variant": "V18T", "protein stability index": 1.88},
      {"variant": "V18A", "protein stability index": 2.17},
      {"variant": "V18F", "protein stability index": 1.62},
      {"variant": "V18L", "protein stability index": 2.23},
      {"variant": "V18N", "protein stability index": 2.23},
      {"variant": "V18P", "protein stability index": 2.96},
      {"variant": "I21G", "protein stability index": 2.66},
      {"variant": "I21K", "protein stability index": 2.07},
      {"variant": "I21S", "protein stability index": 2.38},
      {"variant": "I21P", "protein stability index": 2.16},
      {"variant": "I21T", "protein stability index": 2.17},
      {"variant": "I21E", "protein stability index": 2.6},
      {"variant": "I21F", "protein stability index": 2.52},
      {"variant": "I21R", "protein stability index": 2.31},
      {"variant": "V19L", "protein stability index": 1.47},
      {"variant": "V19Q", "protein stability index": 2.5},
      {"variant": "V19F", "protein stability index": 2.48},
      {"variant": "V19K", "protein stability index": 1.99},
      {"variant": "V19R", "protein stability index": 2.83},
      {"variant": "V19I", "protein stability index": 1.46},
      {"variant": "V19G", "protein stability index": 2.2}
    ]}
  ]
}
